Drawing on patent US20240132603A1 (HARBOUR BIOMED US, published 2024), this text covers EC50 for 17 molecules.

For assay [1], the target named is T1, human CCR8 (human, UniProt P51685 1-355).
T1 construct: whole, on cells; construct used for the overexpressing cell lines is not described; also called hCCR8
The experiment in a line: FACS, CHO-K1-hCCR8 cells. The method, then:
(§1) Cells overexpressing human CCR8 were digested with pancreatin, counted and resuspended to a cell density of 1E6 cells/mL. The cell suspension was added to a 96-well V-bottom plate at 100 μL/well and centrifuged at 300 g for 5 min, and the supernatant was discarded. The anti-CCR8 antibodies provided herein was used as a primary antibody and diluted in a 5-fold gradient with an FACS buffer (DPBS containing 2% FBS) from 200 nM. The diluted primary antibody was added at 100 μL/well to resuspend the cells, and the mixture was incubated at 4° C. for 1 h. The plate was washed twice with DPBS and centrifuged at 300×g for 5 min, and the supernatant was discarded. The secondary antibody diluted in a 1:1000 ratio with an FACS buffer was added at 100 μL/well to suspend the cells, and the mixture was incubated at 4° C. for 40 min. The plate was washed twice with DPBS and centrifuged at 300×g for 5 min, and the supernatant was discarded. DPBS was added at 200 μL/well to suspend the cells, and the mixture was loaded on an FACS machine for analysis.

Assay [2] deals with T2, cynomolgus monkey CCR8 (cynomolgus monkey, UniProt G7NYJ2 1-355).
T2 construct: whole, on cells; also called CynoCCR8
Kind of assay: FACS, CHO-K1-CynoCCR8 cells. The method, then:
as §1, with “cynomolgus monkey CCR8, CHO-K1-CynoCCR8,” for “human CCR8”

Assay [3] deals with T1, human CCR8. Kind of assay: FACS, CHO-K1-hCCR8 cells. The method, then: as §1
This is another data set of the same source. A general note: In flow cytometry, cells or beads pass a laser one at a time.

Where two headings read alike, the source gives them in different places.

T1 sequence (P51685 whole entry): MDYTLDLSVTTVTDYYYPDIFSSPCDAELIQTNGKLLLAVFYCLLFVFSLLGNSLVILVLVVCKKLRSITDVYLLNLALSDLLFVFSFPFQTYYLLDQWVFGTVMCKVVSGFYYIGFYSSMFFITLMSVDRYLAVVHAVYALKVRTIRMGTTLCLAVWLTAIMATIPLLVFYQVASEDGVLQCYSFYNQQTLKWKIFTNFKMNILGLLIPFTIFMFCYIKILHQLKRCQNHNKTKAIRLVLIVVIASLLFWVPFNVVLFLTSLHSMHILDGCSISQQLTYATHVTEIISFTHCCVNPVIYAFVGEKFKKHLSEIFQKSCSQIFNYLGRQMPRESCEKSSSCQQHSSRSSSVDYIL
T2 sequence (G7NYJ2 entry or part of it): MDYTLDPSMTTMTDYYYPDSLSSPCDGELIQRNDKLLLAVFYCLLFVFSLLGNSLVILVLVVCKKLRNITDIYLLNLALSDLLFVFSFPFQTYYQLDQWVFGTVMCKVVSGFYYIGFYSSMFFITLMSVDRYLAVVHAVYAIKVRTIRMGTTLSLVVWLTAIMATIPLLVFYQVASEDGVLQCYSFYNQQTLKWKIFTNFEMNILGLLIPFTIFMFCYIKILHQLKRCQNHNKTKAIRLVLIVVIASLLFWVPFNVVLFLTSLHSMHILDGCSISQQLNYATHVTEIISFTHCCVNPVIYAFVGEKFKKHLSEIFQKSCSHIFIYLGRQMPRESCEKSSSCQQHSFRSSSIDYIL

B1: PR004324 (antibody, human IgG1, kappa, V domains shown)
VH: EVQLVESGGGLVQPKGSLKLSCAASGFTFNTYAMNWVRQAPGKGLEWVARIRSKSNNYATYYADSVKDRFTISRDDSQSMLYLQMNNLKTEDTAMYYCVRGKENGNYYAMDFWGQGTSVTVSA
VL: DIVMTQAAPSVPVTPGESVSISCRSSKSLLHSNAKIYLYWFLQRPGQSPQLLIYRMSNLASGVPDRFSGSGSGTAFTLRISRVEAEDVGVYYCMQHLEYPLTFGAGTKLEIKR
notes: PTM variant of PR004128, IgG1 with DE mutation
As a reminder, the EC50 is the concentration at which the effect is half-maximal. Take B1: the EC50 was found to be 0.67 nM in assay [1] and 2.3 nM in assay [2].

B2: PR004329 (antibody, human IgG1, kappa, V domains shown)
VH: EVQLVESGGGLVQPKGSLKLSCAASGFTFNTYAMNWVRQAPGKGLEWVARIRSKSNNYATYYADSVKDRFTISRDDSQSMLYLQMNNLKTEDTAMYYCVRGKEQGNYYAMDFWGQGTSVTVSA
VL: DIVMTQAAPSVPVTPGESVSISCRSSKSLLHSNGKIYLYWFLQRPGQSPQLLIYRMSNLASGVPDRFSGSGSGTAFTLRISRVEAEDVGVYYCMQHLEYPLTFGAGTKLEIKR
notes: as for B1
Consider B2, for which the values for the EC50 in assay [1] and in assay [2] were 0.17 nM and 0.41 nM, respectively.

B3: PR004336 (antibody, human IgG1, kappa, V domains shown)
VH: EVQLVESGGGLVQPGGSLKLSCAASGFTFNTYAMNWVRQASGKGLEWVGRIRSKSNNYATYYADSVKDRFTISRDDSKSTLYLQMNSLKTEDTAVYYCVRGKENGNYYAMDFWGQGTTVTVSS
VL: DIVMTQAAPSVPVTPGESVSISCRSSKSLLHSNGKIYLYWFLQRPGQSPQLLIYRMSNLASGVPDRFSGSGSGTAFTLRISRVEAEDVGVYYCMQHLEYPLTFGAGTKLEIKR
notes: heavy-chain semi-humanized variant of PR004128, IgG1 with DE mutation
As to B3, the 50% effective concentration (EC50) in assay [1] was found to be 0.79 nM; in assay [2] it was 3.33 nM.

B4: PR005332 (antibody, human IgG1, kappa)
heavy: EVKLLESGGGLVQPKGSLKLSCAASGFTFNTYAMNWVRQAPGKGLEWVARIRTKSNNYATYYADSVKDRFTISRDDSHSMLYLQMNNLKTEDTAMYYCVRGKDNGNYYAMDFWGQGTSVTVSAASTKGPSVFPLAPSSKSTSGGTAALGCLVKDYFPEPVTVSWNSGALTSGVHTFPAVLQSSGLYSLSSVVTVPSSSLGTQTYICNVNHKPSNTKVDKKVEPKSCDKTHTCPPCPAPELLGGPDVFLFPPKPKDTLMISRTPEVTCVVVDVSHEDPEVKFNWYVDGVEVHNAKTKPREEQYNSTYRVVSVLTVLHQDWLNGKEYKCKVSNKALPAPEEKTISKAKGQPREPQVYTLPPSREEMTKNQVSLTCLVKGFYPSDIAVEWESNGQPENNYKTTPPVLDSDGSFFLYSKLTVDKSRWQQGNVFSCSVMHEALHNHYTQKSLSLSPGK
light: DIVMTQAAPSVPVTPGESVSISCRSSKSLLHSNGNTYLYWFLQRPGQSPQLLIYRMSNLASGVPDRFSSSGSGTDFTLRISRVEAEDVGVYYCMQHLEYPFTFGAGTKLEIKRTVAAPSVFIFPPSDEQLKSGTASVVCLLNNFYPREAKVQWKVDNALQSGNSQESVTEQDSKDSTYSLSSTLTLSKADYEKHKVYACEVTHQGLSSPVTKSFNRGEC
notes: same VH/VL as PR005329, other heavy chain entry
Consider B4, for which, in assay [3], the EC50 was 0.63 nM.

B5: PR004327 (antibody, human IgG1, kappa, V domains shown)
VH: EVQLVESGGGLVQPKGSLKLSCAASGFTFQTYAMNWVRQAPGKGLEWVARIRSKSNNYATYYADSVKDRFTISRDDSQSMLYLQMNNLKTEDTAMYYCVRGKENGNYYAMDFWGQGTSVTVSA
VL: DIVMTQAAPSVPVTPGESVSISCRSSKSLLHSNGKIYLYWFLQRPGQSPQLLIYRMSNLASGVPDRFSGSGSGTAFTLRISRVEAEDVGVYYCMQHLEYPLTFGAGTKLEIKR
notes: as for B1
For the molecule B5, the values for the EC50 in assay [1] and in assay [2] were 1.08 nM and 13.4 nM, respectively.

B6: PR004326 (antibody, human IgG1, kappa, V domains shown)
VH: EVQLVESGGGLVQPKGSLKLSCAASGFTFNTYAMNWVRQAPGKGLEWVARIRSKSNNYATYYADSVKDRFTISRDDSQSMLYLQMNNLKTEDTAMYYCVRGKENANYYAMDFWGQGTSVTVSA
VL: DIVMTQAAPSVPVTPGESVSISCRSSKSLLHSNGKIYLYWFLQRPGQSPQLLIYRMSNLASGVPDRFSGSGSGTAFTLRISRVEAEDVGVYYCMQHLEYPLTFGAGTKLEIKR
notes: as for B1
For the molecule B6, the EC50 was found to be 0.37 nM in assay [1] and 0.75 nM in assay [2].

B7: PR004325 (antibody, human IgG1, kappa, V domains shown)
VH: EVQLVESGGGLVQPKGSLKLSCAASGFTFNTYAMNWVRQAPGKGLEWVARIRSKSNNYATYYADSVKDRFTISRDDSQSMLYLQMNNLKTEDTAMYYCVRGKENGNYYAMDFWGQGTSVTVSA
VL: DIVMTQAAPSVPVTPGESVSISCRSSKSLLHSQGKIYLYWFLQRPGQSPQLLIYRMSNLASGVPDRFSGSGSGTAFTLRISRVEAEDVGVYYCMQHLEYPLTFGAGTKLEIKR
notes: as for B1
On to B7, for which the EC50 in assay [1] is 1.31 nM; in assay [2], 3.89 nM.

B8: PR005329 (antibody, human IgG1, kappa)
heavy: not shown
light: DIVMTQAAPSVPVTPGESVSISCRSSKSLLHSNGNTYLYWFLQRPGQSPQLLIYRMSNLASGVPDRFSSSGSGTDFTLRISRVEAEDVGVYYCMQHLEYPFTFGAGTKLEIKRTVAAPSVFIFPPSDEQLKSGTASVVCLLNNFYPREAKVQWKVDNALQSGNSQESVTEQDSKDSTYSLSSTLTLSKADYEKHKVYACEVTHQGLSSPVTKSFNRGEC
notes: called CCR8 chimeric antibody; human IgG1 constant region
For the molecule B8, the midpoint of the response in assay [3], the EC50, lay at 0.49 nM.

B9: PR004328 (antibody, human IgG1, kappa, V domains shown)
VH: EVQLVESGGGLVQPKGSLKLSCAASGFTFSTYAMNWVRQAPGKGLEWVARIRSKSNNYATYYADSVKDRFTISRDDSQSMLYLQMNNLKTEDTAMYYCVRGKENGNYYAMDFWGQGTSVTVSA
VL: DIVMTQAAPSVPVTPGESVSISCRSSKSLLHSNGKIYLYWFLQRPGQSPQLLIYRMSNLASGVPDRFSGSGSGTAFTLRISRVEAEDVGVYYCMQHLEYPLTFGAGTKLEIKR
notes: as for B1
In the case of B9, the EC50 in assay [1] is 1 nM; in assay [2], 6.05 nM.

B10: PR004330 (antibody, human IgG1, kappa, V domains shown)
VH: EVQLVESGGGLVKPGGSLRLSCAASGFTFNTYAMNWVRQAPGKGLEWVGRIRSKSNNYATYYADSVKDRFTISRDDSKSTLYLQMNSLKTEDTAVYYCVRGKENGNYYAMDFWGQGTTVTVSS
VL: DIVMTQAAPSVPVTPGESVSISCRSSKSLLHSNGKIYLYWFLQRPGQSPQLLIYRMSNLASGVPDRFSGSGSGTAFTLRISRVEAEDVGVYYCMQHLEYPLTFGAGTKLEIKR
notes: as for B3
Take B10: the 50% effective concentration (EC50) in assay [1] was 0.85 nM; in assay [2] it was 3.96 nM.

B11: PR004338 (antibody, human IgG1, kappa, V domains shown)
VH: EVQLVESGGGLVQPGGSLKLSCAASGFTFNTYAMNWVRQASGKGLEWVGRIRSKSNNYATYYADSVKDRFTISRDDSKSTLYLQMNSLKTEDTAVYYCVRGKENGNYYAMDYWGQGTTVTVSS
VL: DIVMTQAAPSVPVTPGESVSISCRSSKSLLHSNGKIYLYWFLQRPGQSPQLLIYRMSNLASGVPDRFSGSGSGTAFTLRISRVEAEDVGVYYCMQHLEYPLTFGAGTKLEIKR
notes: as for B3
Consider B11, for which the EC50 in assay [1] amounted to 0.72 nM; in assay [2] it was 4.21 nM.

B12: PR004337 (antibody, human IgG1, kappa, V domains shown)
VH: EVQLVESGGGLVQPGGSLKLSCAASGFTFNTNAMNWVRQASGKGLEWVGRIRSKSNNYATYYADSVKDRFTISRDDSKSTLYLQMNSLKTEDTAVYYCVRGKENGNYYAMDFWGQGTTVTVSS
VL: DIVMTQAAPSVPVTPGESVSISCRSSKSLLHSNGKIYLYWFLQRPGQSPQLLIYRMSNLASGVPDRFSGSGSGTAFTLRISRVEAEDVGVYYCMQHLEYPLTFGAGTKLEIKR
notes: as for B3
As to B12, the figures for the EC50 in assay [1] and in assay [2] were 0.76 nM and 5.47 nM, respectively.

B13: PR005330 (antibody, human IgG1, kappa)
heavy: not shown
light: DIVMTQAATSVLVTPGESVSISCRSSKSLLYSNGNTYLYWFLQRPGQSPQLLIYRMSNLASGVPDRFSGSGSGTAFTLRISRVEAEDVGVYYCMQHLEYPFTFGGGTKLELKRTVAAPSVFIFPPSDEQLKSGTASVVCLLNNFYPREAKVQWKVDNALQSGNSQESVTEQDSKDSTYSLSSTLTLSKADYEKHKVYACEVTHQGLSSPVTKSFNRGEC
notes: as for B8
For the molecule B13, the 50% effective concentration (EC50) in assay [3] was found to be 0.47 nM.

B14: PR005333 (antibody, human IgG1, kappa)
heavy: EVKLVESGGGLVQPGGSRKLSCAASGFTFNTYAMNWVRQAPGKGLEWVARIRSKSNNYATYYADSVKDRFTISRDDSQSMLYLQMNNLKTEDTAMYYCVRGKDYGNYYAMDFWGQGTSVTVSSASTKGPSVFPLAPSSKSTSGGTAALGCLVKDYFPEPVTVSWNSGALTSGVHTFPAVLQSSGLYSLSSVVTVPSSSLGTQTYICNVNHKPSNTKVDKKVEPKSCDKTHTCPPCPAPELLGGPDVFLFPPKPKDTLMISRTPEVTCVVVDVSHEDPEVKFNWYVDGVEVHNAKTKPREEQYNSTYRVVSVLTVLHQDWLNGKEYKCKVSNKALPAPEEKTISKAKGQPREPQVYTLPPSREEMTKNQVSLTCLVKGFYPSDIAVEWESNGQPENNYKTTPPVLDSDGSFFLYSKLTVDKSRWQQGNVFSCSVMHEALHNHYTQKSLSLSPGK
light: DIVMTQAATSVLVTPGESVSISCRSSKSLLYSNGNTYLYWFLQRPGQSPQLLIYRMSNLASGVPDRFSGSGSGTAFTLRISRVEAEDVGVYYCMQHLEYPFTFGGGTKLELKRTVAAPSVFIFPPSDEQLKSGTASVVCLLNNFYPREAKVQWKVDNALQSGNSQESVTEQDSKDSTYSLSSTLTLSKADYEKHKVYACEVTHQGLSSPVTKSFNRGEC
notes: same VH/VL as PR005330, other heavy chain entry
For the molecule B14, in assay [3], the EC50 came to 0.52 nM.

B15: PR005125 (antibody, human IgG1, kappa)
heavy: not shown
light: DIVMTQSPLSLSVTLGQPASISCRSSQSLVFSNGNTYLNWFQQRPGQSPRRLIYKVSKRDSGVPDRFSGSGSGTDFTLKISRVEAEDVGVYYCMQGTHWITFGQGTRLEIKRTVAAPSVFIFPPSDEQLKSGTASVVCLLNNFYPREAKVQWKVDNALQSGNSQESVTEQDSKDSTYSLSSTLTLSKADYEKHKVYACEVTHQGLSSPVTKSFNRGEC
notes: fully human, human IgG1 constant region
As for B15, the EC50 in assay [3] came to 0.44 nM.

B16: PR005128 (antibody, human IgG1, kappa)
heavy: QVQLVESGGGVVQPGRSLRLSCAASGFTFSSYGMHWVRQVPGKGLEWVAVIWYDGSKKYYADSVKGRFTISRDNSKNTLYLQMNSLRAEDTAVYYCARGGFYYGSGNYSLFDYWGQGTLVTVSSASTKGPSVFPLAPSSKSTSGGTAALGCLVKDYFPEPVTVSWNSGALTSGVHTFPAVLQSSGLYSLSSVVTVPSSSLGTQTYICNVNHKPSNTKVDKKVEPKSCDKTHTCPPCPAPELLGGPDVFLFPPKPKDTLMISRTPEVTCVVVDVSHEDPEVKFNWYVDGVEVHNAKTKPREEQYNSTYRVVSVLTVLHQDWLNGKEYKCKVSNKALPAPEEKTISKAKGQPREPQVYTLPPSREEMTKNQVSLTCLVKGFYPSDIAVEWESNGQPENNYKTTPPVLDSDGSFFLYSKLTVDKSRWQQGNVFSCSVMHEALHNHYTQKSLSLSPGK
light: DIVMTQSPLSLSVTLGQPASISCRSSQSLVFSNGNTYLNWFQQRPGQSPRRLIYKVSKRDSGVPDRFSGSGSGTDFTLKISRVEAEDVGVYYCMQGTHWITFGQGTRLEIKRTVAAPSVFIFPPSDEQLKSGTASVVCLLNNFYPREAKVQWKVDNALQSGNSQESVTEQDSKDSTYSLSSTLTLSKADYEKHKVYACEVTHQGLSSPVTKSFNRGEC
notes: fully human; same VH/VL as PR005125, other heavy chain entry
As for B16, it took 0.37 nM to reach a half-maximal effect in assay [3] (EC50).

B17: PR005335 (antibody, human IgG1, kappa, V domains shown)
VH: QVQLVQSGGGLVQPGGSLRLSCTASGFTFSYYWLSWVRQAPGKGLEWVANIKQDGSTTYYVDSVKGRFTISRDNAKNSLYLQMNSLRAEDTAVYYCARNWGFDYWGQGTLVTVSS
VL: not shown
notes: as for B15
As for B17, in assay [3], the EC50 is 0.47 nM.
